In the supplement of paper PMC5998384:

Tested on: HeLa Kyoto
Test: thermal stability score vs G1/S (z-score of summed log2 fold changes over temperatures); higher = more thermally stable than in G1/S
[1] = cell cycle stage: early G1 (4.5 h after nocodazole release)
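Further: synchronized HeLa Kyoto cells, proteins quantified by TMT10plex mass spectrometry, three biological replicates, mitosis taken 0.5 h after nocodazole release, G1/S directly after double thymidine block.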

## MAAGLRKRGRSGSAAQAEGLCKQWLQRAWQERRLLLREPRYTLLVAACLCLAEVGITFWVIHRVAYTEIDWKAYMAEVEGVINGTYDYTQLQGDTGPLVYPAGFVYIFMGLYYATSRGTDIRMAQNIFAVLYLATLLLVFLIYHQTCKVPPFVFFFMCCASYRVHSIFVLRLFNDPVAMVLLFLSINLLLAQRWGWGCCFFSLAVSVKMNVLLFAPGLLFLLLTQFGFRGALPKLGICAGLQVVLGLPFLLENPSGYLSRSFDLGRQFLFHWTVNWRFLPEALFLHRAFHLALLTAHLTLLLLFALCRWHRTGESILSLLRDPSKRKVPPQPLTPNQIVSTLFTSNFIGICFSRSLHYQFYVWYFHTLPYLLWAMPARWLTHLLRLLVLGLIELSWNTYPSTSCSSAALHICHAVILLQLWLGPQPFPKSTQHSKKAH [ALG3]
[1]
  thermal stability score: 1.41
Cell cycle stage: mitosis
  thermal stability score: 2.38

## MAALEKMTFPKKMTFPEKPSHKKYRAALKKEKRKKRRQELARLRDSGLSQEEEEDTFIEEQQLEEEKLLERERERLHEEWLLREQKAQEEFRIKKEKEEAAKKWLEEQERKLKEQWKEQQRKEREEEEQKQQEKKEKEEAVQKMLDQAENDLENSTTWQNPEPPVDFRVMEKDRANCPFYSKTGACRFGDRCSRKHNFPTSSPTLLIKSMFTTFGMEQCRRDDYDPDASLEYSEEETYQQFLDFYEDVLPEFKNVGKVIQFKVSCNLEPHLRGNVYVQYQSEEECQAALSLFNGRWYAGRQLQCEFCPVTRWKMAICGLFEIQQCPRGKHCNFLHVFRNPNNEFWEANRDIYLSSDQTGSSFGKNSERREKMGHHDHYYSRQRGRRNPSPDHTYKRNGESERKKSSHRGKKSHKRTSKSRERHNSPSRGRNRHRSWDQGRRSQSRRSHRSRSQSSSRCRSRGRRKSGNRDRTVQSPQSK [ZRSR1]
[1]
  thermal stability score: 1.06e-17
Cell cycle stage: mitosis
  thermal stability score: 1.37e-17

## MAEQVLPQALYLSNMRKAVKIRERTPEDIFKPTNGIIHHFKTMHRYTLEMFRTCQFCPQFREIIHKALIDRNIQATLESQKKLNWCREVRKLVALKTNGDGNCLMHATSQYMWGVQDTDLVLRKALFSTLKETDTRNFKFRWQLESLKSQEFVETGLCYDTRNWNDEWDNLIKMASTDTPMARSGLQYNSLEEIHIFVLCNILRRPIIVISDKMLRSLESGSNFAPLKVGGIYLPLHWPAQECYRYPIVLGYDSHHFVPLVTLKDSGPEIRAVPLVNRDRGRFEDLKVHFLTDPENEMKEKLLKEYLMVIEIPVQGWDHGTTHLINAAKLDEANLPKEINLVDDYFELVQHEYKKWQENSEQGRREGHAQNPMEPSVPQLSLMDVKCETPNCPFFMSVNTQPLCHECSERRQKNQNKLPKLNSKPGPEGLPGMALGASRGEAYEPLAWNPEESTGGPHSAPPTAPSPFLFSETTAMKCRSPGCPFTLNVQHNGFCERCHNARQLHASHAPDHTRHLDPGKCQACLQDVTRTFNGICSTCFKRTTAEASSSLSTSLPPSCHQRSKSDPSRLVRSPSPHSCHRAGNDAPAGCLSQAARTPGDRTGTSKCRKAGCVYFGTPENKGFCTLCFIEYRENKHFAAASGKVSPTASRFQNTIPCLGRECGTLGSTMFEGYCQKCFIEAQNQRFHEAKRTEEQLRSSQRRDVPRTTQSTSRPKCARASCKNILACRSEELCMECQHPNQRMGPGAHRGEPAPEDPPKQRCRAPACDHFGNAKCNGYCNECFQFKQMYG [TNFAIP3]
[1]
  thermal stability score: 0.262
Cell cycle stage: mitosis
  thermal stability score: -0.606

## MAGLKRRVPLHSLRYFISMVGLFSKPGLLPWYARNPPGWSQLFLGTVCKGDFTRVIATKCQKGQKSQKKPSHLGPLDGSWQERLADVVTPLWRLSYEEQLKVKFAAQKKILQRLESYIQMLNGVSVTTAVPKSERLSCLLHPIIPSPVINGYRNKSTFSVNRGPDGNPKTVGFYLGTWRDGNVVCVQSNHLKNIPEKHSQVAQYYEVFLRQSPLEPCLVFHEGGYWRELTVRTNSQGHTMAIITFHPQKLSQEELHVQKEIVKEFFIRGPGAACGLTSLYFQESTMTRCSHQQSPYQLLFGEPYIFEELLSLKIRISPDAFFQINTAGAEMLYRTVGELTGVNSDTILLDICCGTGVIGLSLAQHTSRVLGIELLEQAVEDARWTAAFNGITNSEFHTGQAEKILPGLLKSKEDGQSIVAVVNPARAGLHYKVIQAIRNFRAIHTLVFVSCKLHGESTRNVIELCCPPDPAKKLLGEPFVLQQAVPVDLFPHTPHCELVLLFTR [TRMT2B]
[1]
  thermal stability score: 0.356
Cell cycle stage: mitosis
  thermal stability score: 1.27

## MAPLRPLLILALLAWVALADQESCKGRCTEGFNVDKKCQCDELCSYYQSCCTDYTAECKPQVTRGDVFTMPEDEYTVYDDGEEKNNATVHEQVGGPSLTSDLQAQSKGNPEQTPVLKPEEEAPAPEVGASKPEGIDSRPETLHPGRPQPPAEEELCSGKPFDAFTDLKNGSLFAFRGQYCYELDEKAVRPGYPKLIRDVWGIEGPIDAAFTRINCQGKTYLFKGSQYWRFEDGVLDPDYPRNISDGFDGIPDNVDAALALPAHSYSGRERVYFFKGKQYWEYQFQHQPSQEECEGSSLSAVFEHFAMMQRDSWEDIFELLFWGRTSAGTRQPQFISRDWHGVPGQVDAAMAGRIYISGMAPRPSLAKKQRFRHRNRKGYRSQRGHSRGRNQNSRRPSRATWLSLFSSEESNLGANNYDDYRMDWLVPATCEPIQSVFFFSGDKYYRVNLRTRRVDTVDPPYPRSIAQYWLGCPAPGHL [VTN]
[1]
  thermal stability score: 2.31
Cell cycle stage: mitosis
  thermal stability score: -1.24

## MASAVFEGTSLVNMFVRGCWVNGIRRLIVSRRGDEEEFFEIRTEWSDRSVLYLHRSLADLGRLWQRLRDAFPEDRSELAQGPLRQGLVAIKEAHDIETRLNEVEKLLKTIISMPCKYSRSEVVLTFFERSPLDQVLKNDNVHKIQPSFQSPVKISEIMRSNGFCLANTETIVIDHSIPNGRDQQLGVDPTEHLFENGSEFPSELEDGDDPAAYVTNLSYYHLVPFETDIWD [PXDC1]
[1]
  thermal stability score: -0.022
Cell cycle stage: mitosis
  thermal stability score: 0.549

## MDPETRGQEIIKVTPLQQMLASCTGAILTSVIVTPLDVVKIRLQAQNNPLPKGKCFVYSNGLMDHLCVCEEGGNKLWYKKPGNFQGTLDAFFKIIRNEGIKSLWSGLPPTLVMAVPATVIYFTCYDQLSALLRSKLGENETCIPIVAGIVARFGAVTVISPLELIRTKMQSKKFSYVELHRFVSKKVSEDGWISLWRGWAPTVLRDVPFSAMYWYNYEILKKWLCEKSGLYEPTFMINFTSGALSGSFAAVATLPFDVVKTQKQTQLWTYESHKISMPLHMSTWIIMKNIVAKNGFSGLFSGLIPRLIKIAPACAIMISTYEFGKAFFQKQNVRRQQY [SLC25A40]
[1]
  thermal stability score: -1.32
Cell cycle stage: mitosis
  thermal stability score: -2.29

## MEPGEVKDRILENISLSVKKLQSYFAACEDEIPAIRNHDKVLQRLCEHLDHALLYGLQDLSSGYWVLVVHFTRREAIKQIEVLQHVATNLGRSRAWLYLALNENSLESYLRLFQENLGLLHKYYVKNALVCSHDHLTLFLTLVSGLEFIRFELDLDAPYLDLAPYMPDYYKPQYLLDFEDRLPSSVHGSDSLSLNSFNSVTSTNLEWDDSAIAPSSEDYDFGDVFPAVPSVPSTDWEDGDLTDTVSGPRSTASDLTSSKASTRSPTQRQNPFNEEPAETVSSSDTTPVHTTSQEKEEAQALDPPDACTELEVIRVTKKKKIGKKKKSRSDEEASPLHPACSQKKCAKQGDGDSRNGSPSLGRDSPDTMLASPQEEGEGPSSTTESSERSEPGLLIPEMKDTSMERLGQPLSKVIDQLNGQLDPSTWCSRAEPPDQSFRTGSPGDAPERPPLCDFSEGLSAPMDFYRFTVESPSTVTSGGGHHDPAGLGQPLHVPSSPEAAGQEEEGGGGEGQTPRPLEDTTREAQELEAQLSLVREGPVSEPEPGTQEVLCQLKRDQPSPCLSSAEDSGVDEGQGSPSEMVHSSEFRVDNNHLLLLMIHVFRENEEQLFKMIRMSTGHMEGNLQLLYVLLTDCYVYLLRKGATEKPYLVEEAVSYNELDYVSVGLDQQTVKLVCTNRRKQFLLDTADVALAEFFLASLKSAMIKGCREPPYPSILTDATMEKLALAKFVAQESKCEASAVTVRFYGLVHWEDPTDESLGPTPCHCSPPEGTITKEGMLHYKAGTSYLGKEHWKTCFVVLSNGILYQYPDRTDVIPLLSVNMGGEQCGGCRRANTTDRPHAFQVILSDRPCLELSAESEAEMAEWMQHLCQAVSKGVIPQGVAPSPCIPCCLVLTDDRLFTCHEDCQTSFFRSLGTAKLGDISAVSTEPGKEYCVLEFSQDSQQLLPPWVIYLSCTSELDRLLSALNSGWKTIYQVDLPHTAIQEASNKKKFEDALSLIHSAWQRSDSLCRGRASRDPWC [PLEKHM2]
[1]
  thermal stability score: -1.92
Cell cycle stage: mitosis
  thermal stability score: -1.58
